Reference: patent publication US12006356 (JUNO THERAPEUTICS, dated 2024)

Assays:
[1] = target: T1, murine CCT5 (mouse, UniProt P80316 2-541); test: immunoprecipitation and Western blot, B16-F10 cells
T1 construct: Endogenous CCT5 in B16-F10 melanoma cells; also called mouse CCT5

[2] = target: DNAJC13 (UniProt O75165 1-2243); test: immunoprecipitation from OvCar8, SKBR3 and MIAPACA2 lysates, Western blot with rabbit polyclonal antibodies
Description: (§1) A. Immunoprecipitation and Mass Spectrometry to Identify Candidate Target Proteins Whole cell lysates of exemplary ovarian or leukemia cell lines were used for immunoprecipitation experiments with the antibody identified in Example 1. The identified antibody was covalently conjugated to magnetic epoxy beads, and 10 µg of bead-bound antibody were incubated with 1-2 mL whole cell lysate (at 1 mg protein/mL lysate) of ovarian carcinoma cell line (OvCar8) or acute myeloid leukemia cell line (SKM1). The cell lysates were also incubated with control antibodies known to bind the cell line, or beads alone. The immunoprecipitates were then washed and eluted first with low pH, and second with a cationic detergent elution buffer. The eluates were resolved by SDS-PAGE and stained with a protein stain to visualize the bands.
(§2) The immunoprecipitation with the identified antibody was repeated, with OvCar8 cells and also SKBR3 (breast cancer) and MIAPACA2 (pancreas carcinoma) cell lines. The eluates were resolved by SDS-PAGE, transferred for Western blot analysis using rabbit polyclonal antibodies specific to the top 10 candidate proteins identified in part A: RalGapa2, RalGapB, SPTAN1, IMPDH2, DNAJC13, SPTAN1, SNRNP200, PRPF8, CCT4, and CCT2. CCT2 and CCT4 were specifically detected in the immunoprecipitates from all assessed cancer cell lines. No bands corresponding to the other proteins were detected. CCT2 and CCT4 are both part of the TCP1 ring complex (TRiC).

[3] = target: SNRNP200 (UniProt O75643 1-2136, limits assumed); test: as above
Description: as §1, §2

[4] = target: SPTAN1 (UniProt Q13813 1-2472, limits assumed); test: as above
Description: as §1, §2

[5] = target: PRPF8 (UniProt Q6P2Q9 2-2335); test: as above
Description: as §1, §2

[6] = target: T2, RalGapB (UniProt Q86X10 1-1494, limits assumed); test: as above
T2 sequence (looked up): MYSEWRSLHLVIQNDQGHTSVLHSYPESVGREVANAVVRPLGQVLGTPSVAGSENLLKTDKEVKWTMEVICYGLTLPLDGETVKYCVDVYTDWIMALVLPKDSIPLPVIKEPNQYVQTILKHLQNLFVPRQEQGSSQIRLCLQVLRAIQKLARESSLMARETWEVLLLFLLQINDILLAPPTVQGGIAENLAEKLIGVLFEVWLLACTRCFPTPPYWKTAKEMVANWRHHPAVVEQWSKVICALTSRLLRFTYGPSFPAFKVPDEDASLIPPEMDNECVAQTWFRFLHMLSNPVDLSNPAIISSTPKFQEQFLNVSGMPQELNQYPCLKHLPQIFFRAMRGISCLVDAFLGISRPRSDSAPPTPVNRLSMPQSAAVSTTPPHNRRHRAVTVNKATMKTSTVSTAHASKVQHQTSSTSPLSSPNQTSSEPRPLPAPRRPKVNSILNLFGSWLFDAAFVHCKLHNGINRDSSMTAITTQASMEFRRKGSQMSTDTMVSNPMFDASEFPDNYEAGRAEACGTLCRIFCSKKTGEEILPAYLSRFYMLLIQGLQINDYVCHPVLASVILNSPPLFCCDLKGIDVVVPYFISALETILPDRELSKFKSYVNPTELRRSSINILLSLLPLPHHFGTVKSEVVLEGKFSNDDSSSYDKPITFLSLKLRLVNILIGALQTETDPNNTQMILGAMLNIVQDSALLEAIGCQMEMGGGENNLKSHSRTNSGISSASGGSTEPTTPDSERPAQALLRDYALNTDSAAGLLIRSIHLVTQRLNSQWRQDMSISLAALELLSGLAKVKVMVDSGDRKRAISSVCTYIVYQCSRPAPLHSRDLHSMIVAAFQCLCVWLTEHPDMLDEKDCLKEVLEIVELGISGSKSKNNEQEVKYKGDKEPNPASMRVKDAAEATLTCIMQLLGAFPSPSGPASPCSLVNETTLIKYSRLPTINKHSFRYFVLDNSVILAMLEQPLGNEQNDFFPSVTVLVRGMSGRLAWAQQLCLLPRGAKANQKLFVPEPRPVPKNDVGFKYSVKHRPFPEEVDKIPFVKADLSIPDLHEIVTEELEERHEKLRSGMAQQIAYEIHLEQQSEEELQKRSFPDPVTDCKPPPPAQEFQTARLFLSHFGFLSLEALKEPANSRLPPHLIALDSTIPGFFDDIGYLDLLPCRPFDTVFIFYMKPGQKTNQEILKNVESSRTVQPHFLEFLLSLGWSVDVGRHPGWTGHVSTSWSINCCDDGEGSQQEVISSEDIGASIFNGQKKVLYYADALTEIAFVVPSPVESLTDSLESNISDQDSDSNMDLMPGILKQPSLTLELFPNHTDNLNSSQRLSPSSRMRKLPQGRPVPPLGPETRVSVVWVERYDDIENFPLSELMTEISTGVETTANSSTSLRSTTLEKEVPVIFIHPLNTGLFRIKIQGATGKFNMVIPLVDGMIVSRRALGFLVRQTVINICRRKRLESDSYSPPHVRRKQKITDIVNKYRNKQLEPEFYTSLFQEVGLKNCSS
Description: as §1, §2

[7] = target: RalGapa2 (UniProt Q2PPJ7 1-1873, limits assumed); test: as above
Description: as §1, §2

[8] = target: T3, human CCT5 (human, UniProt P48643 2-541, limits assumed); test: immunoprecipitation from cytosolic and plasma membrane lysate fractions, Western blot for CCT5
T3 construct: also called Chaperonin Containing TCP1 Subunit 5; TRiC protein CCT5
Text: Cytosolic and plasma membrane (surface) lysate preparations of SK-BR-3 and OvCar3 cells were probed by Western blot for CCT5 after immunoprecipitation with the antibody identified Example 1, or a negative control antibody, Panitumumab.

Chain of SNRNP200 (O75643 whole entry): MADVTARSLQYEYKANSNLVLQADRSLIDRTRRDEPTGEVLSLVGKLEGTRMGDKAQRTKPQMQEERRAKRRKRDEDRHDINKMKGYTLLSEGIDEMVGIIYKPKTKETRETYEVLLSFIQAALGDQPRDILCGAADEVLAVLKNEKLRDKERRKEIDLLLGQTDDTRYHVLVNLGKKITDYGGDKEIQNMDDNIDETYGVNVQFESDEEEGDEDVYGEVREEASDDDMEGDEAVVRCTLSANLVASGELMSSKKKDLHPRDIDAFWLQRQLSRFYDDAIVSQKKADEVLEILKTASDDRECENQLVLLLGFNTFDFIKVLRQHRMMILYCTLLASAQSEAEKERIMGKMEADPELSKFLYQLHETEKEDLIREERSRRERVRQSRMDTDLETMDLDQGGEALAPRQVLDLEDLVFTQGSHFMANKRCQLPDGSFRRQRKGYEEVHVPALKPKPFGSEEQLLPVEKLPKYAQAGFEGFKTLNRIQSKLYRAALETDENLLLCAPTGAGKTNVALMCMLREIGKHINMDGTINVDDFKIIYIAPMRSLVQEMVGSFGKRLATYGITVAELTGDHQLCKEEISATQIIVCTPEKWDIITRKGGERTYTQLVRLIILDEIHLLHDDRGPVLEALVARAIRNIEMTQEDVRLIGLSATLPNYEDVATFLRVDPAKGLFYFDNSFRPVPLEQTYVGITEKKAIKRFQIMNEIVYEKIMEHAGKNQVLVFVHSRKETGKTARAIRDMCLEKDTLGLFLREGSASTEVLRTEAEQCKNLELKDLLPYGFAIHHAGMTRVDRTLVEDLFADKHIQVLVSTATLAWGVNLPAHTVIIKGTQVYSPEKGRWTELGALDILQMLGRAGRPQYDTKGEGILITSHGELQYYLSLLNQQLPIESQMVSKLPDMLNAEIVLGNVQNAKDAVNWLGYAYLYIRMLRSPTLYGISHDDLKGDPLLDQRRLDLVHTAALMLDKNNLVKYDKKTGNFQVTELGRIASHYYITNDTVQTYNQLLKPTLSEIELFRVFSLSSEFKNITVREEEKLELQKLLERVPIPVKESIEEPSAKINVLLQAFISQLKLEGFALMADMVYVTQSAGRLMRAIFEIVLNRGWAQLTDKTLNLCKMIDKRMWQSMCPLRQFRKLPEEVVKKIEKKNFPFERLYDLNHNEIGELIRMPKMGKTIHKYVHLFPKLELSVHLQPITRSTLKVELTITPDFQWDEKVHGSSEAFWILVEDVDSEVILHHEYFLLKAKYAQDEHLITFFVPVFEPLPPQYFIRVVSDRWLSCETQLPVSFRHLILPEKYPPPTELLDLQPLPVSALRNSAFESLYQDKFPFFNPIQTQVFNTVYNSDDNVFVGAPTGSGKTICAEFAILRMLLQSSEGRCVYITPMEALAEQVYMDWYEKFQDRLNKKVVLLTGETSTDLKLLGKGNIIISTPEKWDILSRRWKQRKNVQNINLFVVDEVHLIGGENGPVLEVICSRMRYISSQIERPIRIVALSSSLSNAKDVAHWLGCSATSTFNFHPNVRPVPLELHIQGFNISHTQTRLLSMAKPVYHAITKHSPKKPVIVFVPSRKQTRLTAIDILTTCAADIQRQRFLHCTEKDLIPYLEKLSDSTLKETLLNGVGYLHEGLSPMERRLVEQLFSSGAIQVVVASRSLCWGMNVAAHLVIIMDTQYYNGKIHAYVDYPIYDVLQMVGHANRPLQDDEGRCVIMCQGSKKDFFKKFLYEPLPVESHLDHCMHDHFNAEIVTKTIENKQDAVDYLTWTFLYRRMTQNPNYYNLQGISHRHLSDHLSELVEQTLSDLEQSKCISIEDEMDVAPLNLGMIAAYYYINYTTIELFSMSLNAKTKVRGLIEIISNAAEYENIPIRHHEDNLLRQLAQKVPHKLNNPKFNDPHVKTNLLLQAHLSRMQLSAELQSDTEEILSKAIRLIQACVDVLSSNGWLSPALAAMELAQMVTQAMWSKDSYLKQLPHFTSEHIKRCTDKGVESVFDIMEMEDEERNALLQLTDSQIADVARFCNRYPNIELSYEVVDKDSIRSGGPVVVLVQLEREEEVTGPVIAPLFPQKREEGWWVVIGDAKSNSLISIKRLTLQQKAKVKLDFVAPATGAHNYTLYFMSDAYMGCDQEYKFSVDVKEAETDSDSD
T3 sequence (P48643 2-541 limits assumed): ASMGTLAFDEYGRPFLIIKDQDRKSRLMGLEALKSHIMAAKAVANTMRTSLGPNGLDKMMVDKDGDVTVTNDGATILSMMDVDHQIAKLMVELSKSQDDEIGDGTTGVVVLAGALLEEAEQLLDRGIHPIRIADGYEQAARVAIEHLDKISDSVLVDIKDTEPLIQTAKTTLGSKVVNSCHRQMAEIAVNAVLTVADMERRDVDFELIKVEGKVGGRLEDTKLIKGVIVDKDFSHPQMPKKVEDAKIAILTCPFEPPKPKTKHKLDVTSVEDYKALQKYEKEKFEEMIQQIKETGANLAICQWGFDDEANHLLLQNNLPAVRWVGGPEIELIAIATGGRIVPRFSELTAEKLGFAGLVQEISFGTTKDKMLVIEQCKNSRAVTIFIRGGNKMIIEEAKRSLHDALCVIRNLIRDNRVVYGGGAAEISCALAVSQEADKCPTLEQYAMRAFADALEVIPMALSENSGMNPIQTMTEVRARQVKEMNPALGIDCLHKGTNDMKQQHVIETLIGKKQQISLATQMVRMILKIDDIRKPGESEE
Chain of DNAJC13 (O75165 whole entry): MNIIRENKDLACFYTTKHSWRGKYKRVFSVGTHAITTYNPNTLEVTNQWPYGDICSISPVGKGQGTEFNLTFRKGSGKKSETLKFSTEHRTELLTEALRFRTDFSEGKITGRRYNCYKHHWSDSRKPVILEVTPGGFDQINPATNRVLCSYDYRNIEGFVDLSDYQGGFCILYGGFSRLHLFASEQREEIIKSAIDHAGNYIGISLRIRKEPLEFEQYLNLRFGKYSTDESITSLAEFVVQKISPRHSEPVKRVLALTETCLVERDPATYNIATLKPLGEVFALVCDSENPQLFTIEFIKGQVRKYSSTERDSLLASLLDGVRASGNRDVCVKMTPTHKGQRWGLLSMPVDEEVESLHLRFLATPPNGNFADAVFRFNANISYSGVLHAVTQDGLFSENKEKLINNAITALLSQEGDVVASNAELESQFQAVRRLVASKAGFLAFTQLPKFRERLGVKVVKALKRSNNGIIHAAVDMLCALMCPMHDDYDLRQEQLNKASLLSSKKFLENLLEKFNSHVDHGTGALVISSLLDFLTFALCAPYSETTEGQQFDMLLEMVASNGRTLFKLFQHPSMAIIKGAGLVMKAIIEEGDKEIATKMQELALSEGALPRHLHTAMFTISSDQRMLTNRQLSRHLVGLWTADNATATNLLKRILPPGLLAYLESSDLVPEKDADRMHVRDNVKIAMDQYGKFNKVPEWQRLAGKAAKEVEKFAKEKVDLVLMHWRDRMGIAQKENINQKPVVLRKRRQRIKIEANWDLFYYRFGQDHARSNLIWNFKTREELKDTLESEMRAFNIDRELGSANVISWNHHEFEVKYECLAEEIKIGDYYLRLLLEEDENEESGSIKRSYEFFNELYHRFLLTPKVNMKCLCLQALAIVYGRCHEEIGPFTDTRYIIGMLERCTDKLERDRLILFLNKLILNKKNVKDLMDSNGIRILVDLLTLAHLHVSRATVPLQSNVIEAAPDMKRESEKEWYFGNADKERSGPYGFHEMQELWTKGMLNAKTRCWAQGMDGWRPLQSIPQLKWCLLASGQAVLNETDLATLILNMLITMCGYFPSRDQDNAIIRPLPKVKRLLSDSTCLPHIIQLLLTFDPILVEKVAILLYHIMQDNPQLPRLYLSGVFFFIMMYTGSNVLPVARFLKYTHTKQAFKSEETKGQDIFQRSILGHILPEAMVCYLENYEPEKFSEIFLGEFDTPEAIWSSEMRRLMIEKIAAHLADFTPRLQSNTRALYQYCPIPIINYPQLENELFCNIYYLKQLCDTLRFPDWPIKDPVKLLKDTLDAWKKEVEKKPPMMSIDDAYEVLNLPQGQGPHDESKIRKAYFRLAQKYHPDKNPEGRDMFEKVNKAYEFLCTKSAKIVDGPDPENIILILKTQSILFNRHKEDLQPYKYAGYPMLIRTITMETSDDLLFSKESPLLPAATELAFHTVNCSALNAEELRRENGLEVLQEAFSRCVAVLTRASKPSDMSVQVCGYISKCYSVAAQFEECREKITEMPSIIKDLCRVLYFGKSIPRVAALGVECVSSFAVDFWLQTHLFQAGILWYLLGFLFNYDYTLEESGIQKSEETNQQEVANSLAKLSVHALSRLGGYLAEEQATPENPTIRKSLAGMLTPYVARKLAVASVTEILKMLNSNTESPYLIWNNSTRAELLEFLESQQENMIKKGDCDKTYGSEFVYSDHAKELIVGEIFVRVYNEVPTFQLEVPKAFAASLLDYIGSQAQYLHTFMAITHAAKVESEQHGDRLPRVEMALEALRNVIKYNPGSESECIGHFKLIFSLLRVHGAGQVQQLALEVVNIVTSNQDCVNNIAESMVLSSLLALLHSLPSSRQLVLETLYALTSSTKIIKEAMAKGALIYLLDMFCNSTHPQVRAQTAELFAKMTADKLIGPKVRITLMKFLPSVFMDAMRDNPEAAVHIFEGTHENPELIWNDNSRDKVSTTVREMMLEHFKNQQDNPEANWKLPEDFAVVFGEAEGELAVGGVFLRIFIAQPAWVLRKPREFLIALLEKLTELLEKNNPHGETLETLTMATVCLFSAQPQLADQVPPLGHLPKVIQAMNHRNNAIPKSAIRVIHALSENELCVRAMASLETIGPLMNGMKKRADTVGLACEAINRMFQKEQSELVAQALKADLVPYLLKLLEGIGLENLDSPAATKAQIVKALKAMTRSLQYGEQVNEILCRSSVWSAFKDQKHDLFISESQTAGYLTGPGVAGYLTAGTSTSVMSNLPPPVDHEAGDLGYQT

B1: exemplary anti-CCT5 antibody identified in Example 1 (antibody, V domains shown)
VH: EVQLVESGGGLVQPGGSLRLSCAASGFTFSSYSMNWVRQAPGKGLEWVSYISSSSSTIYYADSVKGRFTISRDNAKNSLYLQMNSLRDEDTAVYYCARDFKGDCSSTSCYRGGYYYYYGMDVWGQGTTVTVSS
VL: SYELTQPPSVSVSPGQTASITCFGDQLGDKYVSWYQKKPGQSPVLVIYQDANRPSGIPERFSGSNSGNTATLTIRGTQNLDEADYYCQTWGTTTALFGGGTKLTVL
notes: For immunoprecipitation it was covalently conjugated to magnetic epoxy beads; also called the identified antibody
binding result [1]: binds | binding result [2]: no binding | binding result [3]: no binding | binding result [4]: no binding | binding result [5]: no binding | binding result [6]: no binding | binding result [7]: no binding | binding result [8]: binds
